Measurements from patent USRE50880 (Kymab Limited, dated 2026).

B1: 10A07 (human) (antibody, V domains shown)
VH: EVQLVESGGVLVQPGGSLRLSCAASGFTFSSYIMTWVRQAPGKGLEWVSGISGSGGGTYYADSMKGRFTISRDNSKNTLYLQMNSLRVEDTAVYYCAKDRLGPITLVRGGYYYGMDVWGQGTTVTVSS
VL: DIQMTQSPSSLSASVGDRVTITCRASQSISDYLNWYQQKPGKAPKFLIYAASSLQSGVPSRFSGSGSGTDFTLTVSSLQPEDFATYYCQQSYSTPRTFGQGTRVEIKR
B2: 2D10 (human) (antibody, human IgG4 S228P, kappa, V domains shown)
VH: EVQLVESGGGLVQPGGSLRLSCAASGFTFSNYAMNWVRQAPGKGLEWVSTISGSGGATRYADSVKGRFTISRDNSRNTVYLQMNSLRVEDTAVFYCTKDRLIMATVRGPYYYGMDVWGQGTTVTVSS
VL: DIQMTQSPSSLSASVGDRVTITCRASQSISSYLNWYQQKPGKAPNLLIYAASSLQSGVPSRFSGSGSETDFTLTISSLQPEDFATYYCQQSHSVSFTFGPGTKVDIKR

Target: Recombinant Human OX40L (Leader sequence, Isoleucine Zipper and FLAG Sequence Included) (human)
Sequence (chain, as listed by the source limits assumed): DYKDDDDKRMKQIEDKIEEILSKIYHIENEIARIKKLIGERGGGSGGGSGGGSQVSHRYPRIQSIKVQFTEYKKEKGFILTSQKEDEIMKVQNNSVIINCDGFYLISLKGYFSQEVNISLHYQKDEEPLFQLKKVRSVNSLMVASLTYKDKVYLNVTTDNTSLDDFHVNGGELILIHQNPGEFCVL
Assay: cell-based or functional assay

Row | Binder | Primary T-cell Assay IC50 nM (recombinant OX40L induced IL2 release from primary human T cells)
1 | B1 | 0.83 nM
2 | B2 | 0.81 nM
